Test results from US10925969B2, “Anti-BCMA polypeptides and proteins” (priority 2015, dated 2021).

Legend:
H929 cells [1] = test: In vitro sensitivity to abraxane and bortezumib; format: cell-based; conditions: Homo sapiens, NCI-H929
Protocol: The sensitivity of H929 and U266B cells to abraxane and bortezumib (BTZ) was measured in vitro.

H929 cells [2] = test: Cell viability by flow cytometry (Annexin V/7AAD staining) after various exposure durations; format: cell-based; conditions: viability after 3 days
Protocol: H929 cells were exposed to LMB70 for various durations. Cell viability was analyzed after 3 days by flow cytometry (Annexin V/7AAD staining).
H929 cells were exposed to 2 ng/ml LMB70 for various lengths of time from 10 minutes up to 72 hours. Cell viability was analyzed after 3 days by flow cytometry (Annexin V/7AAD staining).

RPMI-8226 = test: WST assay of immunotoxin activity; format: cell-based
Protocol: (§1) The activity of the anti-BCMA immunotoxins against BCMA-expressing cell lines and cells from four multiple myeloma patients was tested by WST assay.

Jeko-1 = test: WST assay of immunotoxin activity; format: cell-based
Protocol: as §1

KMS-18 = test: WST assay of immunotoxin activity; format: cell-based
Protocol: as §1

H929 = test: WST assay of immunotoxin activity; format: cell-based
Protocol: as §1

HUT-102 = test: WST assay of immunotoxin activity; format: cell-based
Protocol: as §1

JJN-3 = test: WST assay of immunotoxin activity; format: cell-based
Protocol: as §1

U266B = test: WST assay of immunotoxin activity; format: cell-based
Protocol: as §1

LP-1 = test: WST assay of immunotoxin activity; format: cell-based
Protocol: as §1

BCMA = target: T1, BCMA (Homo sapiens, UniProt Q02223); test: Affinity measurement of AF647-labeled and unlabeled LMB70; format: binding; conditions: after the first labeling
T1 sequence (Q02223 1-184): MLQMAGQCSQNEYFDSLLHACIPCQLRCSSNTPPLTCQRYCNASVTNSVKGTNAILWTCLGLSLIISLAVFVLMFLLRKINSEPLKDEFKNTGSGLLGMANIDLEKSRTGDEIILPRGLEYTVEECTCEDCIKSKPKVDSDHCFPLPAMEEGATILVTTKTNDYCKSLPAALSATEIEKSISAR
Protocol: (§2) LMB70 was labeled with AF647 for measurement of uptake in vivo. LMB70 was labeled twice with AF647 using an AF647 labeling kit (Life Technologies). Labeling efficacy and activity were measured by WST-8 assay and affinity measurement.

H929 cells [3] = test: Cell viability by trypan blue staining after 20 minute exposure; format: cell-based; conditions: 100 ng/ml for 20 minutes
Protocol: H929 cells were exposed to 100 ng/ml LMB70 for 20 minutes. Cell viability was analyzed with trypan blue staining.

H929 cells [4] = test: WST-8 assay of AF647-labeled and unlabeled LMB70; format: cell-based; conditions: in ng/mL
Protocol: as §2

BCMA-positive H929 cells = test: Cell killing at fixed dose, trypan blue staining after timed exposure; format: cell-based; conditions: H929, 100 ng/ml
Protocol: Cell killing activity was measured by trypan blue staining of cells taken at various time points (days) after exposure to the immunotoxin.

H929 cells [5] = test: Cell viability and cell density at varying LMB70 concentrations; format: cell-based; conditions: 2 hours or 6 hours exposure
Protocol: H929 cells were exposed to 2, 10, and 100 ng/ml LMB70 for 2 hours or 6 hours. Cell viability and cell density were analyzed.

MM-2 cells from patient = test: WST assay, cells from multiple myeloma patient; format: cell-based, human; conditions: cells from patient MM-2
Protocol: as §1

MM-1 cells from patient = test: WST assay, cells from multiple myeloma patient; format: cell-based, human; conditions: cells from patient MM-1
Protocol: as §1

MM-3 cells from patient = test: WST assay, cells from multiple myeloma patient; format: cell-based, human; conditions: cells from patient MM-3
Protocol: as §1

MM-4 cells from patient = test: WST assay, cells from multiple myeloma patient; format: cell-based, human; conditions: cells from patient MM-4
Protocol: as §1

H929 xenograft tumors = test: Antitumor activity in mice with H929 xenograft tumors; format: in vivo; conditions: 1.5 mg/kg QODX5, SCID mice
Protocol: To test the in vivo efficacy of LMB38 and LMB70, tumors were grown in SCID mice using the most sensitive cell line H929. Based on the previous toxicity data, 1.5 mg/kg QODX5 doses were used on 5 mice in each group. […] However, the tumors grew back once the treatment was finished.

Molecule `CC(C)C[C@H](NC(=O)[C@H](Cc1ccccc1)NC(=O)c1cnccn1)B(O)O` [BTZ, bortezomib] has an IC50 (H929 cells [1]) of 4 nM.

B1: LMB70: anti-BCMA immunotoxin BM306-Fab-LR-GGS (conjugate)
VH: EVQLQQSGPELVKPGASVKISCKTSGYTFTEYTINWVKQSHGKSLEWIGDIYPDNYNIRYNQKFKGKATLTVDKSSSTAYMELRSLSSEDSAIYYCANHDFFVFWGQGTLVTVSA
VL: DIQMTQATSSLSASLGDRVTINCRTSQDISNHLNWYQQKPDGTVKLLIYYTSRLQSGVPSRFSGSGSGTDYSLTISNLEQEDIGTYFCHQGNTLPPTFGGGTKLEIK
modifications: left off: another chain or arm of the molecule; a dimerising Fc or GST; small tags and cut ends
notes: anti-BCMA immunotoxin BM306-Fab-LR-GGS
B1 was tested, and the cell death (H929 cells [2]; 2 ng/ml, even after 24 hours of exposure) was “did not die”, the “exposure time sufficient to kill cells” value (H929 cells [2]; 100 ng/ml) was at most 10 min and the “IC50” value (RPMI-8226) was 0.0051 µg/mL. For the same molecule, the “IC50” value (Jeko-1) was over 0.1 µg/mL, the “IC50” value (KMS-18) was 0.065 µg/mL and the “IC50” value (H929) was 0.0011 µg/mL. For the same molecule, the “IC50” value (HUT-102) was over 0.1 µg/mL, the “IC50” value (JJN-3) was 0.004 µg/mL and the “IC50” value (U266B) was 0.005 µg/mL. The “IC50” value (LP-1) was 0.02 µg/mL, the “Bmax (affinity measurement)” value (BCMA) was 2220 and the “time after exposure at which cells started to die” value (H929 cells [3]) was 24 h. The “time after which all cells were dead” value (H929 cells [3]) was 3 days, the “IC50 (WST-8)” value (H929 cells [4]; after the first labeling) was 1.532 and the “IC50 (WST-8)” value (H929 cells [4]; after the second labeling) was 2.758. It also gave a Percent dead (BCMA-positive H929 cells; 2 hr exposure, D-1) of 43%, a Percent dead (BCMA-positive H929 cells; 2 hr exposure, D-2) of 88% and a Percent dead (BCMA-positive H929 cells; 2 hr exposure, D-5) of 100%. It also gave a Percent dead (BCMA-positive H929 cells; 2 hr exposure, D-7) of 100%, a Percent dead (BCMA-positive H929 cells; 4 hr exposure, D-1) of 44% and a Percent dead (BCMA-positive H929 cells; 4 hr exposure, D-2) of 89%. The Percent dead (BCMA-positive H929 cells; 4 hr exposure, D-5) was 100%, the Percent dead (BCMA-positive H929 cells; 4 hr exposure, D-7) was 100% and the Percent dead (BCMA-positive H929 cells; 6 hr exposure, D-1) was 42%. It also gave a Percent dead (BCMA-positive H929 cells; 6 hr exposure, D-2) of 88%, a Percent dead (BCMA-positive H929 cells; 6 hr exposure, D-5) of 100% and a Percent dead (BCMA-positive H929 cells; 6 hr exposure, D-7) of 100%. It also gave a Percent dead (BCMA-positive H929 cells; 24 hr exposure, D-1) of 51%, a Percent dead (BCMA-positive H929 cells; 24 hr exposure, D-2) of 95% and a Percent dead (BCMA-positive H929 cells; 24 hr exposure, D-5) of 100%. For the same molecule, the Percent dead (BCMA-positive H929 cells; 24 hr exposure, D-7) was 100%, the “effect on cell viability and growth” value (H929 cells [5]; 2 ng/ml) was “slight growth inhibition, but no cell killing” and the “effect on cell viability and growth” value (H929 cells [5]; 10 ng/ml) was “not enough to kill all cells”. For the same molecule, the “IC50” value (MM-2 cells from patient) was 0.017 µg/mL, the “IC50” value (MM-1 cells from patient) was 0.0004 µg/mL and the “IC50” value (MM-3 cells from patient) was 0.0023 µg/mL. For the same molecule, the “IC50” value (MM-4 cells from patient) was 0.0179 µg/mL, the “tumor growth compared to PBS-treated mice” value (H929 xenograft tumors) was “delayed” and the “tumors once the treatment was finished” value (H929 xenograft tumors) was “grew back”.
